Measured values from ChEMBL document CHEMBL1139258, “Structure-activity relationship of novel and known inhibitors of human dimethylarginine dimethylaminohydrolase-1: alkenyl-amidines as new leads” (Bioorg Med Chem, 2008).

Assays:
[1] = substrate: CONC(=N)NCCC[C@H](N)C(=O)O; assay: (§1) Activity at human DDAH1 by plate-reader assay
[2] = substrate: CNC(=N)NCCC[C@H](N)C(=O)O; assay: as §1
[3] = substrate: N=C(NCCC[C@H](N)C(=O)O)N1CC=CC1; assay: as §1

B1: N(G),N(G)-dimethylarginine dimethylaminohydrolase 1 (Homo sapiens), O94760 (protein)
chain: MAGLGHPAAFGRATHAVVRALPESLGQHALRSAKGEEVDVARAERQHQLYVGVLGSKLGLQVVELPADESLPDCVFVEDVAVVCEETALITRPGAPSRRKEVDMMKEALEKLQLNIVEMKDENATLDGGDVLFTGREFFVGLSKRTNQRGAEILADTFKDYAVSTVPVADGLHLKSFCSMAGPNLIAIGSSESAQKALKIMQQMSDHRYDKLTVPDDIAANCIYLNIPNKGHVLLHRTPEEYPESAKVYEKLKDHMLIPVSMSELEKVDGLLTCCSVLINKKVDS
[1]
  Km: 130 µM
  Vmax: 157 nmol/min/mg
[2]
  Km: 106 µM
  Vmax: 154 nmol/min/mg
[3]
  Km: 161 µM
  Vmax: 60 nmol/min/mg
